Experimental findings from US20230194547A1 (Hoffmann-La Roche, published 2023) are described below.

In test [1] the target is T1, human FcRn beta-2-microglobulin complex, biotinylated, coupled to streptavidin Sepharose (human, UniProt P55899 24-297; P61769 21-119, limits assumed, biotinylated (Bulk BIRA kit, Avidity)).
T1 construct: Secreted complex purified from the supernatant; also called neonatal Fc receptor; human FcRn chromatography column
Description: FcRn affinity chromatography, pH gradient 5.5 to 8.8; unlabelled antibody. On the procedure:
(§1) The UV light absorption at a wavelength of 280 nm was used for detection. The column was regenerated for 10 minutes using 20% buffer B after each run.

Test [2] deals with T1, human FcRn beta-2-microglobulin …. Description: FcRn affinity chromatography, pH gradient 5.5 to 8.8; dye-labelled antibody. On the procedure:
as §1

T1 sequence (P55899 24-297 limits assumed, chain 1 of 2): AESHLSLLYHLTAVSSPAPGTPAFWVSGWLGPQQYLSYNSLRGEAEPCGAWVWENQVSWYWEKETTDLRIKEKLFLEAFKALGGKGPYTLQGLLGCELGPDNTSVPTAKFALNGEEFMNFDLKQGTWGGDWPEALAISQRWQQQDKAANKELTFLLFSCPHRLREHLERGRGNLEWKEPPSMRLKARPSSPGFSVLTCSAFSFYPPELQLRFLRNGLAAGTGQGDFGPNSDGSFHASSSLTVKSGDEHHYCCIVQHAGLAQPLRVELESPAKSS
T1 sequence (P61769 21-119 limits assumed, chain 2 of 2): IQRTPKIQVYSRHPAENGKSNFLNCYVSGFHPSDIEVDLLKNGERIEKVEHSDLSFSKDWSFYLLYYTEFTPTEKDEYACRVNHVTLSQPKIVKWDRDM

B1: Vedolizumab (antibody)
chain 1: not shown
chain 2: DVVMTQSPLSLPVTPGEPASISCRSSQSLAKSYGNTYLSWYLQKPGQSPQLLIYGISNRFSGVPDRFSGSGSGTDFTLKISRVEAEDVGVYYCLQGTHQPYTFGQGTKVEIKRTVAAPSVFIFPPSDEQLKSGTASVVCLLNNFYPREAKVQWKVDNALQSGNSQESVTEQDSKDSTYSLSSTLTLSKADYEKHKVYACEVTHQGLSSPVTKSFNRGEC
B1: the “relative retention time on FcRn affinity column” value (from here on “relative retention time”) in test [1] is 0.33 relative to anti-Her3 antibody standard.

B2: Ixekizumab (antibody)
chain 1: not shown
chain 2: DIVMTQTPLSLSVTPGQPASISCRSSRSLVHSRGNTYLHWYLQKPGQSPQLLIYKVSNRFIGVPDRFSGSGSGTDFTLKISRVEAEDVGVYYCSQSTHLPFTFGQGTKLEIKRTVAAPSVFIFPPSDEQLKSGTASVVCLLNNFYPREAKVQWKVDNALQSGNSQESVTEQDSKDSTYSLSSTLTLSKADYEKHKVYACEVTHQGLSSPVTKSFNRGEC
Consider B2, for which the “relative retention time” value in test [1] is 1.42 relative to anti-Her3 antibody standard.

B3: anti-human phospho tau 422 antibody, labelled with pHAb dye (antibody, human IgG1, kappa, L234A L235A)
heavy: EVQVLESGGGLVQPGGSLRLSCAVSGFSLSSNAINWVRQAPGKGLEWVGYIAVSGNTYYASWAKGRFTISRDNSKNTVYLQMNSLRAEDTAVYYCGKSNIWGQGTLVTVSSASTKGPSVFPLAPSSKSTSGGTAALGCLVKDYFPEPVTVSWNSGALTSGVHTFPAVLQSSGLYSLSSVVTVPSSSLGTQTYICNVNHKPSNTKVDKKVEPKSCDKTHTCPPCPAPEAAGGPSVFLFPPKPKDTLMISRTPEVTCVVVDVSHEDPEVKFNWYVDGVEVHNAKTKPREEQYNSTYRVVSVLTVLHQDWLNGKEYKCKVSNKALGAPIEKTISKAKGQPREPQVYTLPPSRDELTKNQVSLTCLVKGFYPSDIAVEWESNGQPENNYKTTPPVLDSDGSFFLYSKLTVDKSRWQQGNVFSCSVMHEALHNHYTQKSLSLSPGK
light: AQVMTQSPSSLSASVGDRVTITCRSSQSVRTNRLAWFQQKPGQPPKRLIYSASTLDYGVPSRFSGSGSGTEFTLTISSLQPEDFATYYCLGYFDSSADIVAFGGGTKVEIKRTVAAPSVFIFPPSDEQLKSGTASVVCLLNNFYPREAKVQWKVDNALQSGNSQESVTEQDSKDSTYSLSSTLTLSKADYEKHKVYACEVTHQGLSSPVTKSFNRGEC
modifications: pHAb dye on a sulfo DBCO-PEG4-amine linker, clicked to the azide-modified N-glycan of the Fc-region
notes: also called anti-pTau antibody; anti-human p(422)Tau antibody
On to B3, for which the “relative retention time” value in test [2] was 1.18 relative to anti-Her3 antibody standard.

B4: anti-human phospho tau 422 antibody (antibody, human IgG1, kappa, L234A L235A)
heavy: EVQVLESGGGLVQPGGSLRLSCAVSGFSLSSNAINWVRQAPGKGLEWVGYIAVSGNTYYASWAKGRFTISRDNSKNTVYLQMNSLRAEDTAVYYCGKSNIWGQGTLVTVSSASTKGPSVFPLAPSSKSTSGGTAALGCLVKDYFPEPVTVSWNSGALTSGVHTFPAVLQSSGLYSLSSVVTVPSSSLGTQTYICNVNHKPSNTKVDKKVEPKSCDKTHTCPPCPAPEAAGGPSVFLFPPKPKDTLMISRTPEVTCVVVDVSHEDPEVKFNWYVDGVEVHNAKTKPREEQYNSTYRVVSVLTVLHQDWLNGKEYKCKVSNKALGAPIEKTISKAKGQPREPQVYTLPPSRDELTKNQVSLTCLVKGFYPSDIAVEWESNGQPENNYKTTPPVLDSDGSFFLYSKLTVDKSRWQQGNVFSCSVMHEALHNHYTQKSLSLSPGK
light: B3 light
notes: IgG1, unlabelled; also called anti-pTau antibody; anti-human p(422)Tau antibody
Consider B4, for which the “relative retention time” value in test [1] was 1.13 relative to anti-Her3 antibody standard.
